Assay results reported in article doi:10.1101/2024.01.05.574393.

Tests used:
[1] = biological target: HSPB1ACD (α-crystallin domain of HSPB1) (human); assay: native MS
[2] = biological target: HSPB5ACD (α-crystallin domain of HSPB5) (human); assay: native MS

Substance | Kd [1] [µM] | Kd [2] [µM]
HSPB1 C-terminal peptide (cognate peptide of HSPB1ACD) | < 100 | 
HSPB5 C-terminal peptide (cognate peptide of HSPB5ACD) |  | < 100
